Measured values reported in the supplement of paper PMC10567573.
± gives the standard deviation.

Assay: protein stability index of a GFP-peptide fusion (GPS, HEK-293T) (PSI 1-6); higher = more stable
[1] = treatment: DMSO, c terminus: a fixed tail appended
[2] = treatment: MLN4924 1 uM, 8 h, c terminus: a fixed tail appended
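Also: 24-mer peptide tiles fused after GFP, lentivirally expressed, FACS-sorted into six equal bins by GFP/DsRed ratio, decoded by Illumina sequencing, PSI is the read-weighted mean bin number.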

Sequence | protein stability index [1] | protein stability index [2] | protein stability index (treatment: DMSO, c terminus: native) | protein stability index (treatment: MLN4924 1 uM, 8 h, c terminus: native)
MVHINRALKLIIRLFLVEDLVDSL [RTN3] | 2.88 ± 0.31 | 2.92 ± 0.53 | – | –
MVPISKQPKEKIQAIIESCSRQFP [NOL4L] | 3.34 ± 0.11 | 3.38 ± 0.47 | – | –
MVSALRGAPLIRVHSSPVSSPSVS [SPACA3] | 2.85 ± 0.39 | 3.08 ± 0.3 | – | –
MVVIHKEIPTGKKDHECSECGKTF [ZNF232] | 3.07 ± 0.4 | 3.28 ± 0.2 | – | –
MWAHSMTVQDYQDLIDRGWRRSGK [ATE1] | 3.11 ± 0.14 | 3.27 ± 0.24 | – | –
NCSIGPNVSLGPGVVVEDGVCIRR [GMPPB] | 4.29 ± 0.3 | 4.393 ± 0.043 | – | –
NDFGVFLCKLFPFLQKSSVGITVL [EDNRA] | 2.88 ± 0.52 | 3.26 ± 0.73 | – | –
NEIFTQLYRTLFSVINNGHNQKVH [PDS5B] | 2.24 ± 0.47 | 2.47 ± 0.56 | – | –
NELDSGFRLLNLKNDSLRKRYDGL [TSN] | 3.21 ± 0.28 | 3.43 ± 0.36 | – | –
NGADVNIQSKDGKSPLHMTAVHGR [ANKRD44] | 4.44 ± 0.22 | 4.46 ± 0.11 | – | –
NIKANDYANAVLQALSNVPPLRNY [USP39] | 2.18 ± 0.21 | 2.03 ± 0.32 | – | –
NIPQMADTLFERATNSSWVVVFKA [SNAP91] | 2.27 ± 0.65 | 2.3 ± 0.82 | – | –
NIQETHRLYRLKLEELTKLQNNCT [TMEM120A] | 2.92 ± 0.19 | 3.08 ± 0.29 | – | –
NITVQKKVSQWWERLTKQEKRPLF [HACD3] | 2.65 ± 0.18 | 2.91 ± 0.13 | – | –
NKGTETDNDPSCVHPIIKRRQCRP [PHTF1] | 4.88 ± 0.085 | 4.81 ± 0.21 | – | –
NLKWLDLKDNPLDPVLAKVAGDCL [LRRC59] | 3.21 ± 0.26 | 3.08 ± 0.19 | – | –
NLQSLKTPTLKVFMHENLYFTNRK [DCAF4] | 2.73 ± 0.26 | 2.65 ± 0.2 | – | –
NLRRHVPDLESGSESGADTISVNQ [DLC1] | 5.29 ± 0.27 | 5.25 ± 0.28 | – | –
NMAGVTFRKFIPKCSKIVIDFDSI [DCTD] | 2.5 ± 0.39 | 1.95 ± 0.32 | – | –
NNILISAVLPTAFRVAKKRAPKVL [GDAP1] | 2.34 ± 0.24 | 2.48 ± 0.34 | – | –
NNMNAVNLFFAWIKIFKYISFNKT [PKD2L1] | 2.81 ± 0.46 | 2.58 ± 0.54 | – | –
NNTGKNLELKFVSSLRRQFEFSVD [TENT5D] | 2.75 ± 0.42 | 2.75 ± 0.4 | – | –

Sequence | protein stability index [1] | protein stability index [2] | protein stability index (treatment: DMSO, c terminus: native) | protein stability index (treatment: MLN4924 1 uM, 8 h, c terminus: native)
NPEVGIFVSIAQSEQESLLQQAQA [SMG5] | 4.09 ± 0.3 | 4.23 ± 0.24 | – | –
NPIIYSFRNPDVQSAIWRMLTGRR [OR3A1] | 2.51 ± 0.41 | 2.58 ± 0.36 | – | –
NPLIASSFSLVKLVLRRQLKNKCC [C22orf31] | 2.25 ± 0.35 | 2.18 ± 0.32 | – | –
NQRIIHRDMKPDNILLDEHDTWLS [STK32A] | 3.71 ± 0.33 | 3.63 ± 0.27 | – | –
NRVSAIIFSLATEWVISTGHDKCV [WDFY1] | 2.96 ± 0.23 | 2.89 ± 0.4 | – | –
NSQESRSDLEDMEEEEGTRSPTLE [SMG5] | 5.56 ± 0.16 | 5.44 ± 0.23 | – | –
NSRVDDTFWASWRAFAQIGPARSG [MIR22HG] | 2.6 ± 0.32 | 2.79 ± 0.35 | – | –
NVEDASHEEVVEKVKKSGSRVMFL [PDZK1] | 4.45 ± 0.2 | – | – | –
NVNRLNESFRDLQLRLLQAPLQAD [SCARA5] | 3.3 ± 0.38 | 3.33 ± 0.34 | – | –
PALEEAPDSHQKRPQHSHSNKKRP [ELOA2] | 5.52 ± 0.25 | 5.33 ± 0.46 | – | –
PAMAASKALGSDLDSSLASLVGNL [SNAP91] | 4.06 ± 0.34 | 3.95 ± 0.34 | – | –
PANSETSDLTLYLVVAVAAVSCVF [PCDHGA10] | 2.69 ± 0.61 | 2.59 ± 0.54 | – | –
PARLLLQALQAGPEGARRGLGVLR [FANCE] | 2.67 ± 0.16 | 2.82 ± 0.34 | – | –
PATALGTASYPSDGCGADGLRSRV [NOL4L] | 4.39 ± 0.27 | 4.55 ± 0.26 | – | –
PDITSSRYRGLPAPGPSPADKKRS [WAS] | 5.22 ± 0.097 | 5.271 ± 0.036 | – | –
PDRGSPEYRQRRERNNIAVRKSRD [CEBPD] | 5.03 ± 0.37 | 5.35 ± 0.12 | – | –
PEAEENKQIIRKHAQTFVALCATD [CCND1] | 3.4 ± 0.73 | 3.81 ± 0.71 | – | –
PEFIKVRENLRRIATLTSEEREL [FAM107A] | – | – | 2.66 ± 0.5 | 3.35 ± 0.55
PEIQKVRAQEREQIKALNNKFASF [KRT71] | 3.78 ± 0.32 | 3.86 ± 0.44 | – | –
PEKASELSQVELQAAPGALPVSSP [TRIM55] | 5.21 ± 0.38 | 5.49 ± 0.24 | – | –
PFNKVQSARFWIPGEPNNAGNNEH [CD207] | 3.92 ± 0.35 | 3.93 ± 0.17 | – | –
PFSFGTLSSWELEAWYEDLQEVLS [DDIT3] | 2.37 ± 0.54 | 2.78 ± 0.21 | – | –

Sequence | protein stability index [1] | protein stability index [2] | protein stability index (treatment: DMSO, c terminus: native) | protein stability index (treatment: MLN4924 1 uM, 8 h, c terminus: native)
PGAPRGNPPKASAAPDCTPSLEAG [MYCL] | 5.28 ± 0.34 | 5.36 ± 0.17 | – | –
PGGETEALTRLERHLERKAWVANF [CRY1] | 3.04 ± 0.36 | 3.07 ± 0.39 | – | –
PGGGRGALLDQIRQGIQLNKTPGA [WAS] | 5.3 ± 0.1 | 4.99 ± 0.47 | – | –
PGPSPDVQLATLAQRVKEVLPHVP [AUP1] | 4.14 ± 0.32 | 4.14 ± 0.13 | – | –
PGSFWGLCQVAQEALASAGASCCG [VENTX] | 2.41 ± 0.4 | 2.54 ± 0.22 | – | –
PGTSFKDSTKTAFHRSQTLSYRNG [EFHC1] | 3.68 ± 0.1 | 3.89 ± 0.11 | – | –
PHFLRVPCWKITLFVIVPVLGPLV [MOG] | 2.9 ± 0.65 | 2.85 ± 0.3 | – | –
PHQCSECGRAFSRKSLLVVHQRTH [ZNF649] | 4.93 ± 0.2 | 5.12 ± 0.16 | – | –
PIETLIRDMLLSGSSFNWPYMAIQ [NR2F2] | 3.34 ± 0.18 | 2.95 ± 0.62 | – | –
PKGEPGSKQSPPMASSPIQPRKGG [FBF1] | 5.33 ± 0.1 | 5.38 ± 0.091 | – | –
PLGNTPMMNQSMMGMNMNIGMSAA [CLINT1] | 3.07 ± 0.21 | 2.9 ± 0.24 | – | –
PLQFLGLFENSLCRLTHIPAYKVS [ZER1] | 2.02 ± 0.55 | 2.08 ± 0.5 | – | –
PMDSTMDDAVAGDFALINKLDIQC [ATE1] | 4.4 ± 0.26 | 4.29 ± 0.24 | – | –
PMPLSEGKSILLFGGAAAVAILAV [BCL2L13] | 2.77 ± 0.76 | 2.75 ± 0.69 | – | –
PNPSKVLQQLLVLQPEQQLNIYKT [CDS1] | 2.38 ± 0.33 | 2.44 ± 0.3 | – | –
PPHPAPAPQHPAASALRTRMTGGR [DYRK1B] | 4.86 ± 0.23 | 4.9 ± 0.13 | – | –
PPKIRLKPHRLGDSEHEPVYRAEL [PWWP2B] | 4.02 ± 0.19 | 4.09 ± 0.095 | – | –
PPNGPNLPMATVDIKNPEITTNRF [WASL] | 4.48 ± 0.15 | 4.16 ± 0.29 | – | –
PPNTRVLRVLPNLPCVVQEGAIVM [PYCR3] | 2.22 ± 0.22 | 2.39 ± 0.25 | – | –
PPRGPQQLSSFGSVDWLSQSSCSG [VENTX] | 3.77 ± 0.56 | 3.96 ± 0.34 | – | –
PPSGSQPLTSTQGLEHAAAGGSSG [FBF1] | 5.3 ± 0.2 | 5.44 ± 0.15 | – | –
